Consider 42 sequences from the supplement of paper PMC7877785.

The nature of this series: self-splicing fitness, log relative to wild type (ln ratio); higher = more splicing; Tetrahymena group I intron in knt gene, E. coli kanamycin selection, DiMSum; sequences stand for … in CUCUCU…GGAGGGAAAAGUUAUCAGGCAUGCACCUGGUAGCUAGUCUUUAAACCAAUAGAUUGCAUCGGUUUAAAAGGCAAGACCGUCAAAUUGCGGGAAAGGGGUCAACAGCCGUUCAGUACCAAGUCUCAGGGGAAACUUUGAGAUGGCCUUGCAAAGGGUAUGGUAAUAAGCUGACGGACAUGGUCCUAACCACGCAGCCAAGUCCUAAGUCAACAGAUCUUCUGUUGAUAUGGAUGCAGUUCACAGACUAAAUGUCGGUCGGGGAAGAUGUAUUCUUCUCAUAAGAUAUAGUCGGACCUCUCCUUAAUGGGAGCUAGCGGAUGAAGUGAUGCAACACUGGAGCCGCUGGGAACUAAUUUGUAUGCGAAAGUAUAUUGAUUAGUUUUGGAGUACUCGUGGUCG
The method in brief:
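DiMSum derived fitness as the error-weighted combination of fold changes across replicates, kanamycin versus no kanamycin, normalised to wild type. E. coli BL21(DE3) held the library, which randomised all eight P1ex-region intron nucleotides within the knt kanamycin-resistance gene on pET-22b(+). Six replicate transformations grew overnight at 37°C or 30°C on LB agar with or without 25 μg/mL kanamycin, also containing 100 μg/mL carbenicillin, 50 μM IPTG and 0.2% rhamnose, and pooled colonies were amplicon-sequenced on an Illumina HiSeq 2500.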

± gives the uncertainty stated by the source.

Consider UGACAGCAAUAUUACGCUCU, for which the “self-splicing fitness (ln)” value (30 °C) is -0.946 ± 0.083 and the “self-splicing fitness (ln)” value (37 °C) is -0.389 ± 0.093.
On the same counts, the results for UGACAGCAAUAUUACGGAGG are -4.41 ± 0.29 and -3.93 ± 0.21.
In the same order, the values of UGACAGCAAUAUUACGGAUC are -4.78 ± 0.32 and -2.21 ± 0.16.
On the same counts, the results for UGACAGCAAUAUUACGGCCU are -0.801 ± 0.068 and 0.131 ± 0.078.
For the sequence UGACAGCAAUAUUACGGCUA, the “self-splicing fitness (ln)” value is, setting by setting: (30 °C) -0.14 ± 0.079; (37 °C) 0.942 ± 0.11.
Take UGACAGCAAUAUUACGGCUC: the “self-splicing fitness (ln)” value was -1.37 ± 0.16 (30 °C) and -0.546 ± 0.17 (37 °C).
On to UGACAGCAAUAUUACGGUAU, for which the “self-splicing fitness (ln)” value reads like this: (30 °C) -3.58 ± 0.2; (37 °C) -2.45 ± 0.21.
On the same counts, the results for UGACAGCAAUAUUACGGUUG are -2.49 ± 0.13 and -1.56 ± 0.15.
On the same counts, the results for UGACAGCAAUAUUACGUAUG are -1.56 ± 0.058 and -0.368 ± 0.073.
On the same counts, the results for UGACAGCAAUAUUACGUGCG are -1.12 ± 0.086 and -0.119 ± 0.097.
Regarding UGACAGCAAUAUUACGUUUA, the “self-splicing fitness (ln)” value was -0.565 ± 0.061 (30 °C) and -0.556 ± 0.07 (37 °C).
Take UGAGAGCAAUAUUACGAAAA: the “self-splicing fitness (ln)” value (37 °C) was 0.153 ± 0.41.
On to UGAGAGCAAUAUUACGACAA, for which the “self-splicing fitness (ln)” value is, setting by setting: (30 °C) -0.796 ± 0.32; (37 °C) -1.99 ± 0.43.
For the sequence UGAGAGCAAUAUUACGAGGC, the “self-splicing fitness (ln)” value is -2.98 ± 0.22 (30 °C) and -2.17 ± 0.33 (37 °C).
Regarding UGAGAGCAAUAUUACGAGGG, the “self-splicing fitness (ln)” value was -3.68 ± 0.35 (30 °C) and -1.09 ± 0.36 (37 °C).
With UGAGAGCAAUAUUACGCAAA, the “self-splicing fitness (ln)” value (37 °C) is -0.61 ± 0.36.
UGAGAGCAAUAUUACGCAAG: the “self-splicing fitness (ln)” value reads like this: (30 °C) -3.21 ± 0.32; (37 °C) -2.74 ± 0.44.
UGAGAGCAAUAUUACGCCGU: the “self-splicing fitness (ln)” value (30 °C) was -3.58 ± 0.47.
UGAGAGCAAUAUUACGCUCG: the “self-splicing fitness (ln)” value (37 °C) is -1.32 ± 0.45.
With UGAGAGCAAUAUUACGCUGC, the “self-splicing fitness (ln)” value (30 °C) is -2.67 ± 0.42.
Consider UGAGAGCAAUAUUACGGCUU, for which the “self-splicing fitness (ln)” value (30 °C) was -4.13 ± 0.42.
Same read-out and setting: as for UGAGAGCAAUAUUACGGGUA, the figure is -2.66 ± 0.37.
Turning to UGAGAGCAAUAUUACGUAUA, the “self-splicing fitness (ln)” value by setting is: (30 °C) -3.03 ± 0.42; (37 °C) -1.66 ± 0.35.
In the same order, the values of UGAGAGCAAUAUUACGUCGA are -2.82 ± 0.39 and -3.1 ± 0.47.
In the same order, the values of UGAGAGCAAUAUUACGUGAU are -3.97 ± 0.46 and -2.72 ± 0.38.
On the same counts, the results for UGAGAGCAAUAUUACGUUAU are -2.88 ± 0.23 and -2.89 ± 0.43.
As to UGAUAGCAAUAUUACGAAGC, the “self-splicing fitness (ln)” value (30 °C) is -3.24 ± 0.32.
For UGAUAGCAAUAUUACGCAUA, the “self-splicing fitness (ln)” value (30 °C) was -2.13 ± 0.19 and the “self-splicing fitness (ln)” value (37 °C) was -0.977 ± 0.16.
Regarding UGAUAGCAAUAUUACGCAUC, for the setting “37 °C”, the “self-splicing fitness (ln)” value is -1.53 ± 0.49.
For the sequence UGAUAGCAAUAUUACGCCGU, the “self-splicing fitness (ln)” value is, setting by setting: (30 °C) -4.2 ± 0.43; (37 °C) -2.01 ± 0.2.
For UGAUAGCAAUAUUACGCGUC, the “self-splicing fitness (ln)” value (30 °C) was -3.08 ± 0.31.
On to UGAUAGCAAUAUUACGGAUA, for which the “self-splicing fitness (ln)” value is -3.57 ± 0.25 (30 °C) and -1.6 ± 0.19 (37 °C).
For the sequence UGAUAGCAAUAUUACGGGGC, the “self-splicing fitness (ln)” value (30 °C) was -3.5 ± 0.29.
On to UGAUAGCAAUAUUACGGUAG, for which the “self-splicing fitness (ln)” value (30 °C) was -2.38 ± 0.2 and the “self-splicing fitness (ln)” value (37 °C) is -1.12 ± 0.17.
Consider UGAUAGCAAUAUUACGGUUC, for which the “self-splicing fitness (ln)” value (37 °C) was -1.46 ± 0.27.
In the case of UGAUAGCAAUAUUACGUAGA, the “self-splicing fitness (ln)” value by setting is: (30 °C) -2.3 ± 0.15; (37 °C) -0.984 ± 0.17.
In the same order, the values of UGAUAGCAAUAUUACGUGAG are -0.705 ± 0.05 and -0.543 ± 0.087.
On to UGAUAGCAAUAUUACGUGCG, for which the “self-splicing fitness (ln)” value is -0.579 ± 0.1 (30 °C) and -0.921 ± 0.087 (37 °C).
As for UGAUAGCAAUAUUACGUGUU, the “self-splicing fitness (ln)” value was -3.87 ± 0.19 (30 °C) and -2.6 ± 0.2 (37 °C).
In the same order, the values of UGAUAGCAAUAUUACGUUCA are -0.43 ± 0.087 and 0.075 ± 0.093.
On the same counts, the results for UGAUAGCAAUAUUACGUUGC are -2.16 ± 0.17 and -2.32 ± 0.28.
As for UGAUAGCAAUAUUACGUUUG, the “self-splicing fitness (ln)” value by setting is: (30 °C) -1.26 ± 0.073; (37 °C) 0.0201 ± 0.099.
